Experiment [1] has as its target ΔC-PYM-GFP (S2 cells) (Drosophila). As to the kind of experiment: co-IP + cross-linking; as the native GFP-Trap IP from S2 cell extracts, but extracts cross-linked with 1 mM DSP for 1 h at 4°C before the IP; blots quantified by densitometry.
For experiment [2], the target named is N-PYM-GFP (S2 cells) (Drosophila) (UniProt P82804). The description is as above.
Experiment [3] has the same target. As to the kind of experiment: co-IP; GFP-Trap beads on cytoplasmic extracts of S2 cells expressing GFP or GFP-tagged FL-, ΔC- or N-PYM, native conditions; blots of Mago and Y14 quantified by densitometry, coIP efficiency as percent of the GFP enrichment.

From paper PMC4072592 come the findings set out here.

Sequence of Y14-Mago heterodimer, endogenous in S2 cells (Q9V535 whole entry): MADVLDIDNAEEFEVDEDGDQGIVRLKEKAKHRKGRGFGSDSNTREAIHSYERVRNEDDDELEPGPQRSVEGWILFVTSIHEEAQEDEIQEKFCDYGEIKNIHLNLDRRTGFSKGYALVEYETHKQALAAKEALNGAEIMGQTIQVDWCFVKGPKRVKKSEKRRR
Sequence of Y14-Mago heterodimer, endogenous in S2 cells (P49028 whole entry): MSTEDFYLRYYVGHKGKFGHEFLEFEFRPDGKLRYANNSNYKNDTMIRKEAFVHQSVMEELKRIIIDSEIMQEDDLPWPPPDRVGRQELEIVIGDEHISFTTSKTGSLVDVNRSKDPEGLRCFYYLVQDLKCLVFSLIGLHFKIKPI
Sequence of N-PYM-GFP (S2 cells) (Drosophila) (P82804 whole entry): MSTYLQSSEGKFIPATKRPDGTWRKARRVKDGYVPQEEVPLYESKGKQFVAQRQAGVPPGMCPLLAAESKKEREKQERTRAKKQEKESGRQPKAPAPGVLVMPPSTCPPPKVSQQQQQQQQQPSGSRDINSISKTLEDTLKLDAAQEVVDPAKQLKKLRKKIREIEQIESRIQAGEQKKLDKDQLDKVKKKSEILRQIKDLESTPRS
Sequence of ΔC-PYM-GFP (S2 cells) (Drosophila) (P82804 whole entry, stated change not applied): as the sequence (P82804 whole entry) above

As to “Y14-Mago heterodimer, endogenous in S2 cells (from UniProt Q9V535 1-165; P49028 1-147) (complex)”, in experiment [1], the coIP efficiency of Mago (percent of the GFP enrichment), DSP cross-linked amounted to 98.9% and the fold increase of binding upon DSP treatment against native was found to be 3.6 fold. Further, the coIP efficiency of Mago (percent of the GFP enrichment), DSP cross-linked in experiment [2] came to 84.9%. In experiment [3], this substance registered a coIP efficiency of Mago (percent of the GFP enrichment), native of 0.92%.
